# Results reported in patent US20250009854A1 (MACFARLANE BURNET INSTITUTE FOR MEDICAL RESEARCH AND PUBLIC …, published 2025).
# Where a chain is given by its changes, count along the chain named.
# T1: dimeric rsFcγRIIa (H131 allelic form) (UniProt P12318 34-217)
# T1 construct: also called dimeric recombinant soluble FcγRIIa
# T1 sequence: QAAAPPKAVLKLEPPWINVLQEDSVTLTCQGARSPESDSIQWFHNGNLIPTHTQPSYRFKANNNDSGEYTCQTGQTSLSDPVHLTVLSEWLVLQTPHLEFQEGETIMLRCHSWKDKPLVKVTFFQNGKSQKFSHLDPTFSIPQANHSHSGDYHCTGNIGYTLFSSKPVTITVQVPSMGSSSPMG
# B1: S2P6-WT mAb (antibody, V domains shown)
# VH: EVQLVQSGAEVKKPGASVKVSCKASGYTFTSQYMHWVRQAPGQGLEWIGIINPSGVHTSYAQKFQGRVTLTRDTSTSTLYMELSSLRSEDTAVYYCARGSPKGAFDYWGQGTLVTVSS
# VL: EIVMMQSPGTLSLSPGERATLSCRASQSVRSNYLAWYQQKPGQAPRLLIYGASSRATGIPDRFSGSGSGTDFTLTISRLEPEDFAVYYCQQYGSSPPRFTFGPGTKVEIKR
# B2: CC40.8-WT mAb (antibody, V domains shown)
# VH: EVQLLESGGGLVQPGGSLRLSCAASGFTFSSYVMTWARQAPGKGLEWVSAISGTGYTYYADSVKGRFTVSRDNSKNTLFLQMSSLRAEDTAVYYCAITMAPVVWGQGTTVTVSS
# VL: SYELTQPPSVSVSPGQTARITCSGDALPKRYAYWYQQKSGQAPILVIYEDKKRPSGIPERLSGSKSGTVATLTISGAQVEDEADYYCYSTDSSGNHAVFGGGTQLTVLG
# B3: EflACE2-Fc-[change] (Fc fusion)
# chain: ETGSTIEEQAKYFLDKFNHEAEDLFYQSSLASWNYNTNITEENVQNMNNAGDKWSAFLKEQSTTAQMYPLQEIQNLTVKLQLQALQQNGSSVLSEDKSKRLNTILNTMSTIYSTGKVCNPDNPQECLLLEPGLNEIMANSLDYNERLWAWESWRSEVGKQLRPLYEEYVVLKNEMARANHYEDYGDYWRGDYEVNGVDGYDYSRGQLIEDVEHTFEEIKPLYEHLHAYVRAKLMNAYPSYISPIGCLPAHLLGDMWGRFWTNLYSLTVPFGQKPNIDVTDAMVDQAWDAQRIFKEAEKFFVSVGLPNMTQGFWEYSMLTDPGNVQKAVCHPTAWDLGKGDFRILMCTKVTMDDFLTAHHEMGHIQYDMAYAAQPFLLRNGANEGFHEAVGEIMSLSAATPKHLKSIGLLSPDFQEDNETEINFLLKQALTIVGTLPFTYMLEKWRWMVFKGEIPKDQWMKKWWEMKREIVGVVEPVPHDETYCDPASLFHVSNDYSFIRYYTRTLYQFQFQEALCQAAKHEGPLHKCDISNSTEAGQKLFNMLRLGKSEPWTLALENVVGAKNMNVRPLLNYFEPLFTWLKDQNKNSFVGWSTDWSPYADQSIKVRISLKSALGDRAYEWNDNEMYLFRSSVAYAMRQYFLKVKNQMILFGEEDVRVANLKPRISFNFFVTAPKNVSDIIPRTEVEKAIRMSRSRINDAFRLNDNSLEFLGIQPTLGPPNQPPVSGGGGSTHTCPPCPAPELLGGPSVFLFPPKPKDTLMISRTPEVTCVVVDVSHEDPEVKFNWYVDGVEVHNAKTKPREEQYNSTYRVVSVLTVLHQDWLNGKEYKCKVSNKALPAPIEKTISKAKGQPREPQVYTLPPSREEMTKNQVSLTCLVKGFYPSDIAVEWESNGQPENNYKTTPPVLDSDGSFFLYSKLTVDKSRWQQGNVFSCSVMFEALHNHYTQKSLSLSPGK
# B4: EflACE2-Fc-[change] (Fc fusion)
# chain: B3 chain with F937Y
# How the values were obtained:
# [1] = target: T2, SARS-CoV-2 spike protein on Ramos-S cells (SARS-CoV-2, UniProt P0DTC2 14-1273); test: flow cytometry on Ramos-S cells, FITC anti-hIgG-Fc
# T2 construct: whole, on cells
# [2] = target: T1, dimeric rsFcγRIIa (H131 allelic form); test: flow cytometry, biotinylated dimeric rsFcγRIIa + streptavidin-APC on Ramos-S cells opsonised with 5 µg/ml ACE2-Fc
# [3] = target: T3, dimeric rsFcγRIIIa (V158 form) (UniProt P08637 17-208); test: flow cytometry, biotinylated dimeric rsFcγRIIIa + streptavidin-APC on Ramos-S cells opsonised with 5 µg/ml ACE2-Fc
# T3 construct: also called dimeric recombinant soluble FcγRIIIa
# T3 sequence (P08637 17-208 F176V limits assumed): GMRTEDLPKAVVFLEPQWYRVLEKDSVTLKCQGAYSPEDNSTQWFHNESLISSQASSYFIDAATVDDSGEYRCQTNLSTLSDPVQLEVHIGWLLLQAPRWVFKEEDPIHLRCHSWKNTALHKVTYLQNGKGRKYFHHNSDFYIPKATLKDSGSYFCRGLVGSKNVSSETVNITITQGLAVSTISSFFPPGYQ
# [4] = target: T1, dimeric rsFcγRIIa (H131 allelic form); test: flow cytometry, biotinylated dimeric rsFcγRIIa + streptavidin-APC on Ramos-S cells opsonised with ACE2-Fc
binder,measurement,setting,value
B1,binding result,[1],binds
B2,binding result,[1],binds
B3,binding result,[2],binds
same,binding result,[3],binds
B4,binding result,[4],no binding (tested: 5 µg/ml ACE2-Fc for opsonisation)
